Source: US20140088019A1
Bridges are numbered along the chain shown (N, C = ends). Where no end group is shown, it is not given here.

Target: recombinant human angiopoietin-2 (human) (UniProt O15123)
Experiment: direct ELISA, rhAng2 coated on microplate wells, detection by HRP-anti-His tag antibody, OD450

Chain of UniProt O15123 (O15123 19-496 limits assumed): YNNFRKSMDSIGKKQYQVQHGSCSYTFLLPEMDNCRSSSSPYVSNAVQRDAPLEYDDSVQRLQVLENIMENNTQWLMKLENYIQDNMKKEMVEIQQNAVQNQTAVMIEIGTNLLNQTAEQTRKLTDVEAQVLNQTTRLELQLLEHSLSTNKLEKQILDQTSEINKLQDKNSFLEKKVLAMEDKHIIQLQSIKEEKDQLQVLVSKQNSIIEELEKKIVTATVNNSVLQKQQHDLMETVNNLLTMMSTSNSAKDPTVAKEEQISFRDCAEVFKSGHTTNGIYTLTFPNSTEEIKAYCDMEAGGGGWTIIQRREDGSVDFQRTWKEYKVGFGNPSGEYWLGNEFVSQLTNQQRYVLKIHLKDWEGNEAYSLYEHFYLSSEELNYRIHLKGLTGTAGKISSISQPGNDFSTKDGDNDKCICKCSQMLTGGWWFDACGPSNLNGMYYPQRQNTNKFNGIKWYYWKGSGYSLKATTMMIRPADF

- EC50 (read off the curve): 8 nM
B1: Construct 12: ELP-MRD fusion protein with a constrained rhAng2-targeting peptide (ANGd) sandwiched between ELP repeat modules (designed binder, not shown: small tags and cut ends)
chain: LWDDCYSFPNPPHCYNSP
modifications: disulfide 5-14 (inferred); not fully specified (N-terminus, C-terminus); also: peptide sandwiched between ELP repeat modules, ELP composition not given here
